Source: patent publication US7422883 (INTER K, dated 2008)
No end group written: not given here. *: point of attachment. Biotin = O=C1N[C@H]2[C@H](CS[C@H]2CCCCC(=O)*)N1

What was measured:
[1] = molecular target: T1, GST.ERK2 (non-phosphorylated ERK2 coupled to glutathione-S-transferase) (Mus musculus (Mouse), UniProt P63085 1-358); assay: ELISA, biotinylated peptide on streptavidin plate, detection with SC1647
T1 construct: not shown: glutathione-S-transferase encoded by pGEX vector; N-terminal position assu
Method: Peptide fragments corresponding to regions of the cytoplasmic tail domain of the β6 subunit were screened in an enzyme-linked immunosorbent assay (ELISA) for binding with ERK2. The 52 amino acid long β6 cytoplasmic tail is shown in FIG. 16 as are the amino acid sequences for the cytoplasmic domains of the β1 to β3 subunits. In particular, four synthetic peptides designated fragment 1 to fragment 4 were prepared and biotinylated at the N-terminal end of each, respectively (Auspep Pty Ltd, Melbourne Australia).
Overlapping biotinylated fragments 1 to 4 were coated onto streptavidin coated polystyrene plates (Pierce, Rockford Ill. USA, Cat No. 15125) and the ELISA performed substantially according to manufacturers instructions. […]
Binding of ERK to the peptides is detected using 100 µl anti-ERK1/2 mAb SC1647 (Santa Cruz) as the primary antibody at a dilution of 1:700 (isotype matched antibody IgG2b is used as a control). […] A […] of detection reagent (alkaline phosphatase detection kit-Biorad) is then introduced into each well after a final washing step and allowed to react for 15-30 minutes at room temperature in the dark before absorbance is measured at 405 nm. […]

[2] = molecular target: T1, GST.ERK2 (non-phosphorylated ERK2 …); assay: ELISA over a range of peptide concentrations (FIG. 20)
[3] = molecular target: T2, ERK2 cleaved from GST-ERK2 by thrombin (Mus musculus (Mouse), UniProt P63085 1-358, limits assumed); assay: ELISA with thrombin-cleaved ERK2 (FIG. 23)
T2 construct: also called ERK2 (thrombin cleaved)

[4] = molecular target: T3, ERK2 (soluble ERK2 used in the ELISAs of Examples 10 to 12) (Mus musculus (Mouse), UniProt P63085 1-358, limits assumed); assay: ELISA, corrected for non-specific binding (FIG. 34)
[5] = molecular target: T3, ERK2 (soluble ERK2 used in the ELISAs …); assay: ELISA of ERK2 on synthetic peptide

T1 sequence (P63085 whole entry): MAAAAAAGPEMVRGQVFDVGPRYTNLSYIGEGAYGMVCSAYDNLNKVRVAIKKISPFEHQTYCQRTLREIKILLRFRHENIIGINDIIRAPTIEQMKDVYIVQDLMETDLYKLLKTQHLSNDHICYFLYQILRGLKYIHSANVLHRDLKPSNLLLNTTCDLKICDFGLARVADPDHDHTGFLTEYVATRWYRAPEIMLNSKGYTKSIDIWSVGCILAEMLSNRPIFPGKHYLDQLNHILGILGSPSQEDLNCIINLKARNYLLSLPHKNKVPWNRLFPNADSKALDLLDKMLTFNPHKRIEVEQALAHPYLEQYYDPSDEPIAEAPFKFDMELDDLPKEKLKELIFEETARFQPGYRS
T3 sequence (P63085 whole entry): as above
T2 sequence (P63085 whole entry): as above

Binder: Biotin-RSKAKWQTGTNPLYRGSTST (also called peptide fragment 2) [Fragment 2 of the β6 cytoplasmic tail]
- binding result [1]: binds

Binder: RSKAKWQTGT (also: biotinylated, position not given here) [10 mer test peptide RSKAKWQTGT]
- binding result [2]: binds

Binder: RSKAKNPLYR (4 with WQTGT omitted) [10 mer peptide 10(4) RSKAKNPLYR]
- binding result [3]: binds

Binder: RARAKWDTANNPLYK (also called β3 peptide) [β3 cytoplasmic domain peptide RARAKWDTANNPLYK]
- binding result [4]: binds

Binder: KFEKEKMNAKWDTGENPIYK (also called β1 peptide) [β1 cytoplasmic domain peptide KFEKEKMNAKWDTGENPIYK]
- binding result [5]: no binding (tested: ERK2 (1 µm) by the legend of FIG. 35C)

Binder: RSRARYEMASNPLYR (also called β5 peptide; β5 fragment) [β5 cytoplasmic domain peptide RSRARYEMASNPLYR]
- binding result [4]: binds

Binder: RSKAKWQTGTNPLYR (also: biotinylated, position not given here, also called 15-mer β6 peptide) [15 mer test peptide (seq. 4) RSKAKWQTGTNPLYR]
- binding result [3]: binds
- binding result [4]: binds
- binding result [2]: binds
